The supplement of paper PMC10567573
± gives the standard deviation.

Experiment: protein stability index of a GFP-peptide fusion (GPS, HEK-293T) (PSI 1-6); higher = more stable
[1] = treatment: DMSO, c terminus: a fixed tail appended
[2] = treatment: MLN4924 1 uM, 8 h, c terminus: a fixed tail appended
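Also: 24-mer peptide tiles fused after GFP, lentivirally expressed, FACS-sorted into six equal bins by GFP/DsRed ratio, decoded by Illumina sequencing, PSI is the read-weighted mean bin number.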

Row | Sequence | protein stability index [1] | protein stability index [2] | protein stability index (treatment: DMSO, c terminus: native) | protein stability index (treatment: MLN4924 1 uM, 8 h, c terminus: native)
1 | VAARTPAVEGLTEAEEEELRAELT [TPD52L2] | 5.56 ± 0.23 | 5.26 ± 0.26 |  | 
2 | VAAVLEAVAQTAHLPADSEVTLEA [RSAD1] | 3.8 ± 0.17 | 3.94 ± 0.37 |  | 
3 | VADIDGQYAMTRAQRVRAAMFPET [CTNNB1] | 3.65 ± 0.25 | 3.6 ± 0.24 |  | 
4 | VADMMYFCQMLAVVETINAAIGVT [HACD3] | 3.06 ± 0.42 | 3.2 ± 0.36 |  | 
5 | VAFGIEADDESLLRTSNGQPVKTA [DNAAF3] | 4.47 ± 0.23 | 4.52 ± 0.16 |  | 
6 | VAIAQKFAALRASLVAPLLLELAG [MYORG] | 2.9 ± 0.76 | 2.68 ± 1.1 |  | 
7 | VAQLEDRRSTTDLRGTQFDYERGK [ZSWIM9] | 5.03 ± 0.18 | 5.07 ± 0.24 |  | 
8 | VARPVRFPREHQFFEDGDVQRHLY [ZNF511] | 3.31 ± 0.17 | 3.55 ± 0.38 |  | 
9 | VAVLKGEQEKEAQHKDQTAALPLA [MAP2] | 5.28 ± 0.17 | 5.09 ± 0.27 |  | 
10 | VCLPRSEDDDCDDDDDDDAQILPS [DRICH1] | 5.38 ± 0.22 | 5.14 ± 0.09 |  | 
11 | VDDKFGTGTKKVTRILDGGNPFLD [PSD2] | 4.18 ± 0.051 | 4.23 ± 0.25 |  | 
12 | VDGRATQKLIVNLKPEKSYSFVLT [PTPRD] | 2.4 ± 0.51 | 2.37 ± 0.66 |  | 
13 | VDNIDMIDGDGDDMERFMEEMREL [BEX5] | 5.27 ± 0.41 | 5.26 ± 0.21 |  | 
14 | VDWDEEYPPQMGEEYSQIIYSTKL [BTBD10] | 3.49 ± 0.15 | 3.55 ± 0.41 |  | 
15 | VEEVVYDLSIRGFNKETAAACVEK [TSN] | 4.63 ± 0.22 | 4.51 ± 0.56 |  | 
16 | VEGFRVTLVDEGDLYNWEVAIFGP [CDC34] | 3.11 ± 0.82 | 2.85 ± 0.95 |  | 
17 | VEKLLREEAEGARWTSYRFSRVCR [TRIM35] | 2.89 ± 0.28 | 3.22 ± 0.2 |  | 
18 | VGAAYASLRRRGASAAARLGCNRQ [TRIM14] | 3.36 ± 0.17 | 4.09 ± 0.39 |  | 
19 | VGTRQNEELPCTCPLCTSDRGSCV [RHOBTB3] | 4.77 ± 0.27 | 4.93 ± 0.12 |  | 
20 | VGYGDMYPVTIGGKIVGSLCAIAG [KCNA1] | 2.09 ± 0.55 | 2.45 ± 0.28 |  | 
21 | VIVPKEEGVISVSEDRTVRVWLKR [WDFY2] | 2.78 ± 0.32 | 3.17 ± 0.2 |  | 

Row | Sequence | protein stability index [1] | protein stability index [2] | protein stability index (treatment: DMSO, c terminus: native) | protein stability index (treatment: MLN4924 1 uM, 8 h, c terminus: native)
22 | VKRKMDGREYPDAQGFAADVRLMF [BRD3] | 2.44 ± 0.043 | 2.58 ± 0.18 |  | 
23 | VLCLLAADEDDDRDVALQIHFTLI [GADD45A] | 3.49 ± 2.2 | 2.15 ± 1 |  | 
24 | VLEENGEKNQVQLGKLEATIKSLS [SASS6] | 3.98 ± 0.43 | 3.79 ± 0.16 |  | 
25 | VLRVEQQPHLPLLSTLAGIRVMVH [SCNN1D] | 2.31 ± 0.25 | 2.26 ± 0.082 |  | 
26 | VMSALWVSGLDSSYLREQMLNEPL [GAN] | 2.83 ± 0.24 | 2.29 ± 0.54 |  | 
27 | VMVRWNKSLEWSPWNCILLTKDEA [IQUB] | 2.57 ± 1 | 2.25 ± 0.35 |  | 
28 | VNDKRRKKSGEKEQHISKCKKAFR [KMT2E] | 3.76 ± 0.14 | 3.86 ± 0.27 |  | 
29 | VPDREEGGSGGGGGGDEDGSLGSR [SMAD6] | 5.59 ± 0.24 | 5.33 ± 0.3 |  | 
30 | VPEEEQAANKGEEKKDDENIPMET [SMARCE1] | 5.63 ± 0.19 | 5.68 ± 0.27 |  | 
31 | VPLARSLQISEELLSRNQLSTAAS [LCOR] | 3.67 ± 0.097 | 3.73 ± 0.076 |  | 
32 | VPTVSRPYSFIEFDTFIQKTKKLY [SEC22B] | 2.3 ± 0.34 | 2.47 ± 0.17 |  | 
33 | VQEVMEEEWNALQSVENCPEDLAQ [RPAIN] | 5.51 ± 0.21 | 5.48 ± 0.089 |  | 
34 | VQKDHENYMKILLKVGGILVMPIE [PCMTD1] | 2.88 ± 0.67 | 2.16 ± 0.48 |  | 
35 | VQNGTYLQRVLQNCPWPMSCPGSS [EMID1] | 2.12 ± 0.36 | 3.17 ± 1.1 |  | 
36 | VRILLRRGVDVSLQGKDAWLPLHY [RIPK4] | 2.99 ± 1.7 | 2.29 ± 0.44 |  | 
37 | VRMSADAMLKALLGSKHKVCMDLR [TNNI2] | 2.25 ± 0.45 | 2.1 ± 0.3 |  | 
38 | VRRSSRKSKAELQSEERKRIDELI [KMT5A] | 4.62 ± 0.48 | 4.51 ± 0.39 |  | 
39 | VSFLRSGTKLIFRRRPRQKEAGLS [C2CD2L] | 2.75 ± 0.74 | 3.1 ± 0.24 |  | 
40 | VSGCPEDLTVGRAPTADDDDDDHD [NOL4L] | 5.62 ± 0.31 | 5.63 ± 0.28 |  | 
41 | VSGKCEPIGCDGVLFSTHTLDKCG [ADAMTSL2] | 3.41 ± 0.4 | 3.35 ± 0.29 |  | 
42 | VSPIQIDGAGRTWQDSDTVKLLVD [TOR1AIP2] | 3.92 ± 0.11 | 3.75 ± 0.32 |  | 

Row | Sequence | protein stability index [1] | protein stability index [2] | protein stability index (treatment: DMSO, c terminus: native) | protein stability index (treatment: MLN4924 1 uM, 8 h, c terminus: native)
43 | VTETEETQEKKAESKEPIEEEPTG [SDE2] | 5.68 ± 0.19 | 5.85 ± 0.11 |  | 
44 | VTHREGAPPLPGAESFPGSQVMGS [PLEKHN1] | 4.63 ± 0.14 | 4.51 ± 0.11 |  | 
45 | VTLQCLAARALDKNKIPYKGFIPE [FEM1A] | 2.69 ± 0.27 | 2.67 ± 0.28 |  | 
46 | VVAAVGKELIIFRLVAPTEGSLEW [WDR41] | 2.3 ± 0.21 | 2.37 ± 0.28 |  | 
47 | VVDRIQSSGKNVTLLVCGKKAYDY [PDZK1] | 2.42 ± 0.5 | 2.54 ± 0.31 |  | 
48 | VVEEAKCCCFFKRKRKKTAQRHK [CSNK1G1] |  |  | 4.18 ± 0.33 | 4.69 ± 0.42
49 | VVGFDLELGQAVEVIYPQHSKLTD [DENND6A] | 2.03 ± 0.097 | 2.62 ± 0.3 |  | 
50 | VVKEEISDDNAKLPCFNGRVVSWL [DVL3] | 2.94 ± 0.29 | 3.19 ± 0.19 |  | 
51 | VVPPTPPVVKKKGVKRKADTTTPT [BRD3] | 4.9 ± 0.39 | 4.82 ± 0.31 |  | 
52 | WGPSGQLMGEIAKATFMYEQFPEL [CLINT1] | 1.97 ± 0.38 | 2.06 ± 0.23 |  | 
53 | WLPESDCETVTCCLFSERDAAGAP [SMAD6] | 3.72 ± 0.58 | 3.96 ± 0.27 |  | 
54 | WMQANYDPLSDSDSMTSQAKPEAL [ELOA2] | 4.72 ± 0.12 | 4.54 ± 0.26 |  | 
55 | WPRNPPSRLLGAAAGQRSRPSTYY [DNAJC4] | 3.24 ± 0.25 | 3.67 ± 0.4 |  | 
56 | WVEQAYADKCVCGPSAPPAPTPPS [TIAF1] | 3.9 ± 0.17 | 3.9 ± 0.3 |  | 
57 | YANAVLQALSNVPPLRNYFLEEDN [USP39] | 2.19 ± 0.072 | 2.12 ± 0.24 |  | 
58 | YCAKLCEPQWFYEETESSDDVEVL [C8orf76] | 2.98 ± 0.67 | 3.6 ± 0.79 |  | 
59 | YDQLKAFLCGRALTSDLYAPMVAG [SLC25A39] | 2.61 ± 0.2 | 2.04 ± 0.15 |  | 
60 | YDYLRKLFTDLFDRKGYMFDYEYD [CSNK1G3] | 2.11 ± 0.76 | 2 ± 0.3 |  | 
61 | YEDGEVEEEADSCFGDDEDDSGTE [CDC34] | 5.61 ± 0.16 | 5.67 ± 0.12 |  | 
62 | YEFQIPYICPDYQSYFKTIEDFQQ [KRT36] | 2.28 ± 0.3 | 2.07 ± 0.3 |  | 
63 | YEHHYHTLHGNVCSFCKRAFPSGH [ZNF511] | 2.73 ± 0.37 | 3.19 ± 0.54 |  | 

Row | Sequence | protein stability index [1] | protein stability index [2] | protein stability index (treatment: DMSO, c terminus: native) | protein stability index (treatment: MLN4924 1 uM, 8 h, c terminus: native)
64 | YERTLGQYQYERYGAVELSGAGRR [IRX6] | 3.75 ± 0.36 | 3.81 ± 0.3 |  | 
65 | YFQSVTSNRWLMVKIFLILIVFFI [STX5] | 2.85 ± 0.6 | 2.93 ± 0.49 |  | 
66 | YGETCFPKGRFERKRNPSRKKQHI [ZNF24] | 2.93 ± 0.62 | 3.24 ± 0.6 |  | 
67 | YGMQTQNYPKGGLLDSMCPASTPS [ETS2] | 3.79 ± 0.19 | 3.64 ± 0.18 |  | 
68 | YKENFLKRFQLTKLPPYLIFCIKR [USP39] | 3.02 ± 0.77 | 2.82 ± 0.43 |  | 
69 | YKPEQPLVRLRGGAYIGEGRVEVL [LOXL2] | 3.12 ± 0.16 | 2.97 ± 0.47 |  | 
70 | YKSVLQAVQKTDEGHPFKAYLELE [RTN1] | 3.43 ± 0.12 | 3.54 ± 0.21 |  | 
71 | YLPRDFSTYRPLPDPSVWSRRYTE [MYORG] | 2.64 ± 0.17 | 2.82 ± 0.29 |  | 
72 | YNPDLKKVVEAHKIVLCAVSHVFM [RHOBTB3] | 2.95 ± 0.57 | 2.97 ± 0.26 |  | 
73 | YPIYVIPEPPPVSFQPYHPLHFRG [TENT5D] | 2.35 ± 0.28 | 2.32 ± 0.37 |  | 
74 | YPPFWDEDQHRLYQQIKAGAYDFP [CAMK2D] | 2.56 ± 0.21 | 2.64 ± 0.25 |  | 
75 | YQASAMMVESRYALLIVDSATALY [RAD51] | 2.94 ± 0.47 | 2.89 ± 0.41 |  | 
76 | YQYLHYALFKANRLEKAVAAAYTF [P3H4] | 2.22 ± 0.17 | 2.55 ± 0.25 |  | 
77 | YRQKLLMFLEISSYYDPGRLICDF [VPS39] | 2.92 ± 0.55 | 2.7 ± 0.56 |  | 
78 | YRVSDVTKAGHSLELIEPLIKFQV [VDR] | 1.99 ± 0.4 | 2.12 ± 0.21 |  | 
79 | YSLELGKAIKQKLWEALCSQGAIS [C22orf31] | 2.4 ± 0.45 | 2.63 ± 0.29 |  | 
80 | YSNTKENGINGELTSADRETAEEV [MAP2] | 5.47 ± 0.13 | 5.44 ± 0.24 |  | 
81 | YYPTSSSTSFMSSSSSSSSWLTRR [EMD] | 3.23 ± 0.19 | 3.29 ± 0.39 |  | 
